One experiment concerns the target human HLA A2 molecules (Homo sapiens, UniProt P04439, /I121R/I166T/I218V/L300P/L318F/N151K/N90K/P208A/P217A/Q86G/Q94H/R138H/R169H/T345S). Format: binding.
Experiment [1] relates to PBMC from donors expressing the HLA A2 class 1 allele. The format is cell-based, human.

“PSA 141-150: PSA peptide, amino acids 141-150, sequence F L T P K K L Q C V (Table 7) (FLTPKKLQCV)”: the “score in T2 cell binding assay” value with human HLA A2 molecules is listed as “positive”. With “PSA 146-154: PSA peptide, amino acids 146-154, sequence K L Q C V D L H V (Table 7) (KLQCVDLHV)”, in the experiment with human HLA A2 molecules, the “score in T2 cell binding assay” value is on record as “positive”. Take “PSA 154-163: PSA peptide, amino acids 154-163, sequence V I S N D V C A Q V (Table 7) (VISNDVCAQV)”: the “score in T2 cell binding assay” value in the experiment with human HLA A2 molecules is given as “positive”. Also, in experiment [1], the “T cell lines from PBMC of two prostate cancer patients” value was “established”.

(Values after patent US7598225B1 (priority 1995, dated 2009).)
